Blank lines part the entries; values can stand above or below the binder they belong to.
Columns and labels:
[1] = target: T1, human SIRPβ1-His monomer protein (human, UniProt O00241 30-371); experiment: BLI (ForteBio Octet), antibody on AMC biosensor, SIRP-His monomer 100/33.3/11.1 nM, 1:1 model, averaged KD
T1 construct: also called SIRP-His; monomeric human SIRPβ1; not shown: His tag

[2] = target: T2, human SIRPα V1-His monomer protein (human, UniProt P78324 31-373); experiment: as above
T2 construct: SIRP-His monomer used as analyte in BLI (Octet); also called SIRP-His; monomeric human SIRPα; not shown: His tag

[3] = target: T3, cynomolgus monkey SIRPα, extracellular domain (cynomolgus monkey, UniProt A0A2K5VYQ9 31-372); experiment: SPR (BIACORE), antibody captured on chip, monomeric SIRPα as analyte, 1:1 model
T3 construct: extracellular domain; Monomeric protein in SPR; also called Cyno SIRPα; monomeric cynomolgus monkey SIRPα
Procedure: (§1) The affinities of these SIRPα antibodies were determined using surface plasmon resonance. The SIRPα antibodies were flowed onto a chip and captured by an anti-human IgG covalently coupled to the surface of the chip. A three-point titration of the extracellular binding domain of hSIRPα was performed per the manufacturer’s recommended protocols.

[4] = target: T4, human SIRPα V1, extracellular domain (human, UniProt P78324 31-373); experiment: SPR (BIACORE), antibody captured on chip, monomeric SIRPα ECD as analyte, 1:1 model
T4 construct: also called hSIRPα V1; monomeric human SIRPα
Procedure: as §1

[5] = target: T4, human SIRPα V1, extracellular domain; experiment: SPR (BIACORE), antibody captured by anti-human IgG, monomeric SIRPα ECD as analyte, 1:1 model
Procedure: as §1

[6] = target: T3, cynomolgus monkey SIRPα, extracellular …; experiment: SPR (BIACORE), antibody captured by anti-human IgG, monomeric SIRPα as analyte, 1:1 model
Procedure: as §1

[7] = target: T5, human SIRPα V2, extracellular domain (human, UniProt P78324 31-373); experiment: SPR (BIACORE), antibody captured by anti-human IgG, monomeric SIRPα ECD as analyte, 1:1 model
T5 construct: also called hSIRPα V2
Procedure: as §1

[8] = target: T3, cynomolgus monkey SIRPα, extracellular …; experiment: SPR (BIACORE), antibody captured, monomeric SIRPα as analyte

T1 sequence (O00241 30-371 limits assumed): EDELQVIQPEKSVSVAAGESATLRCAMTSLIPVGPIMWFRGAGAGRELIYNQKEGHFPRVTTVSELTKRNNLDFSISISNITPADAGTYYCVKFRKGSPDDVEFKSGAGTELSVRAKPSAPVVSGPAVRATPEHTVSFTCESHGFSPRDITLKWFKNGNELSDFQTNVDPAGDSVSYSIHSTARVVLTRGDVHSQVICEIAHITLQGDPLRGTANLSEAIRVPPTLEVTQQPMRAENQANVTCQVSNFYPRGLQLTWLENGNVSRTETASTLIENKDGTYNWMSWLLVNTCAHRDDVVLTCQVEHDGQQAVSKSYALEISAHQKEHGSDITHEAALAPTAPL

Kd [1]: 83.9 nM
Kd [2]: 1.21 nM
B1: Antibody 16 (antibody, mouse IgG2a, V domains shown)
VH: QVQLQQSGAELAKPGASVKMSCKASGYTFTSYWMHWVKQRPGQGLEWIGYIDPSTGYTFHNQKFKDKATLTADKSSTTAYMQLRSLTSEDSAVYYCARRDYGSSFYAMDYWGHGTSITVSS
VL: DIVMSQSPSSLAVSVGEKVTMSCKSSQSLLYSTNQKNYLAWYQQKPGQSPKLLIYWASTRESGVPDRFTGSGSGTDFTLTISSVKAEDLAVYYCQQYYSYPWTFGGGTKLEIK
notes: Mouse IgG2a Fc

Kd [3]: 56.1 nM
Kd [1]: 0.456 nM
Kd [2]: 1.21 nM
Kd [4]: 4.1 nM
B2: Antibody 6 (antibody, rat IgG2b, V domains shown)
VH: EVQLLESGGGLVQPGGSLRLSCAASGFTLSSYAMSWVRQAPGKGLEWVSISSGSGANTYNADSLKGRFTISRDNSKNTLFLQMNSLRAEDTAVYYCARLRFFDWFDYWGQGALVTVSS
VL: QAVVTQESALTTSPGETVTLTCRSSTGAVTTSNYANWVQEKPDHLFTGLIGGTNNRTPGVPARFSGSLIGDKAALTITGAQTEDEAIYFCALWYSNHWVFGGGTKLTVL
notes: Human variable region with rat IgG2b Fc

Kd [5]: 2 nM
Kd [6]: 30.6 nM
B3: Antibody 27 (antibody, V domains shown)
VH: B2 VH
VL: B2 VL

Kd [5]: 2.59 nM
Kd [7]: 11.5 nM
Kd [6]: 35.5 nM
B4: Antibody 22 (antibody, V domains shown)
VH: B2 VH
VL: B2 VL
notes: Same variable domains as Antibody 6 with human IgG1 Fc

Kd [1]: 75.9 nM
Kd [2]: 3.79 nM
B5: Antibody 19 (antibody, mouse IgG1, V domains shown)
VH: QVQLQQSGAELVRPGASVTLSCKASGYTFTDYEMHWVKQTPVHGLEWIGAIDPETGGTAYNQKFKGKATLTADKSSSTAYMELRSLTSEDSAVYYCTGITRFAYWGQGTLVTVSA
VL: SIVMTQTPKFLLVSAGDRVTITCKASQSVSNDVAWYQQKPGQSPKLLIYYASNRYTGVPDRFTGSGYGTDFTFTISTVQAEDLAVYFCQQDYSSPWTFGGGTKLEIK
notes: Mouse IgG1 Fc

binding result [8]: no binding
Kd [1]: 3620 nM
Kd [2]: 11 nM
Kd [4]: 89.5 nM
B6: Antibody 2 (antibody, V domains shown)
VH: QVQLVQSGAEVKKPGASVKVSCKASGYTFTGYYIFWMRQAPGQGLEWMGWINPNSGGTDYAQKFQGRVTMTMDTSISTAYMELSRLRSDDTAVYYCAREDCTSISCSFDYWGQGTLVTVSS
VL: not shown
notes: as for B2

Kd [2]: 17.3 nM
B7: Antibody 5 (antibody, rat IgG2b, V domains shown)
VH: QVQLVESGGGVVQPGRSLRLSCAASGFTFSNYGMHWVRQAPGKGPEWVAVIWYDGSYKYYGDSVKGRFTISRDNSKNTLYLQMNSLRAEDTAVYYCVRESVGYSSGWSFDYWGQGILVTVSS
VL: DIQMTQSPSTLSASVGDRVTITCRASQSISSWLAWYQQKPGKVPKLLIYKASSLKTGVPSRFSGNGSGTEFTLTISSLQPDDFATYYCQQYNSYSWTFGQGTKVEIK
notes: as for B2

Kd [2]: 206 nM
B8: Antibody 17 (antibody, mouse IgG2a, V domains shown)
VH: EVQVVESGGGLVKPGGSLKISCAASGFAFSSYDMSWVRQTPEKRLEWVAYISSGGGSIYYAETVKGRFTISRDNAKNTLYLQMSSLKSEDTAMYYCVRHGYHEYFDVWGAGTTVTVSS
VL: DVLMTQTPLSLPVSLGDQASISCRSSQSIVHSNGNTYLEWYLQKPGQSPKLLIYKVSNRFSGVPDRFSGSGSGTDFTLKISRVEAEDLGVYFCFQGSHFPYTFGGGTKLEIK
notes: Mouse IgG2a Fc
